The data set has as its system K4 kissing-loop RNA reporter. Kind of data set: apparent KD of K4 kissing-loop reporter; higher = weaker reporter binding. As to conditions: Eterna round: R107. The procedure:
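RNA-MaP round R107: designed RNA switches with theophylline, tryptophan, arginine or FMN aptamers are transcribed on-chip within common flanks. They are titrated with a labelled K4 kissing-loop RNA reporter in RNA-MaP buffer (100 mM Tris pH 7.5, 80 mM KCl, 4 mM MgCl2), without ligand or with the indicated ligand. Median apparent KD per design.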

Setting [1] is: input ligand: theophylline 20 uM.
The mark [2] stands for this setting: input ligand: tryptophan 2.4 mM.
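Also: bound reporter read as fluorescence of individual clusters on recovered sequencing chips by microscopy, with normalized cluster intensities fitted with a binding model.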

Take “CGCAAGCAGCCAGUGAUGUUGGCCGCCUUGCGAGGACCGGUACGGCCGCCACUCGAAGGCGGCUACUGGUAAACCGUCUAACGGA [Oronorenma]”: the “apparent KD of K4 kissing-loop reporter” value by setting is: (input ligand: FMN 200 uM) 94.9 nM; (input ligand: arginine 13.2 mM) 71.7 nM; (input ligand: none) 66.4 nM; under setting [1], 62.8 nM; under setting [2], 90.1 nM.

For the sequence “UUGUUUCCGACGGCCGCCACUGGUUUCUUUGUUGUAGUGAUGUUGCGGUGGAAUGAUAGCGUUAACAGGACCGGGUCGGUGAGAC [theeternabot_sameState_KL_Trp_B_42]”, the “apparent KD of K4 kissing-loop reporter” value runs as follows: (input ligand: FMN 200 uM) 1280 nM; (input ligand: arginine 13.2 mM) 547 nM; (input ligand: none) 774 nM; under setting [1], 580 nM; under setting [2], 451 nM.

For the sequence “GGCAGUGAUGUUGCCAGUGGCAGAUUGGAAGGAGCGUGGUGAGACACAGGUAGGUCGCUAAUUGAAAUUGCUGUCACUAAAAUGC [whbob_Ex_Arginine_A_2t130]”, the “apparent KD of K4 kissing-loop reporter” value was found to be 297 nM (input ligand: FMN 200 uM); 314 nM (input ligand: arginine 13.2 mM); 307 nM (input ligand: none); 308 nM under setting [1]; 242 nM under setting [2].

For “UGUCAUGGAAACAUGAACGUUGAUGUUCGACGAGGACCGGUACGGCCGCCACUCGAGUAAUAGUCAGUGAUGUUGACUAGUCUAA [KL-SSTryp-A form1]”, the “apparent KD of K4 kissing-loop reporter” value runs as follows: (input ligand: FMN 200 uM) 76.7 nM; (input ligand: arginine 13.2 mM) 107 nM; (input ligand: none) 95 nM; under setting [1], 112 nM; under setting [2], 75.7 nM.

For the sequence “GCCGUAGAUUGAAGGAGCGGACAGAUACGGGAAUCCAGUGAUGUUGGAAGGUAACUACUAGUCCAGGUAGGUCGCAAUCUACGGC”, the “apparent KD of K4 kissing-loop reporter” value (input ligand: FMN 200 uM) stood at 143 nM; the “apparent KD of K4 kissing-loop reporter” value (input ligand: arginine 13.2 mM) was determined as 128 nM; the “apparent KD of K4 kissing-loop reporter” value (input ligand: none) stood at 136 nM; the “apparent KD of K4 kissing-loop reporter” value under setting [1] stood at 146 nM; the “apparent KD of K4 kissing-loop reporter” value under setting [2] was determined as 129 nM.

Consider “UGCGGUAGUGAUGUUACCUCAUUAUACUAGCGAGGACCGGUACGGCCGCCACUCGACUUCCUCCACGCCUAGGCCUCUACGUUCA [theeternabot_sameState_KL_Trp_A_36]”, for which the “apparent KD of K4 kissing-loop reporter” value is 136 nM (input ligand: FMN 200 uM); 122 nM (input ligand: arginine 13.2 mM); 137 nM (input ligand: none); 127 nM under setting [1]; 98.2 nM under setting [2].

Take “UUGCAUGCUAGGGAAACCUAGCAUGCAUGCCGAGGACCGGUACGGCCGCCACUCGAACGAGUGAUGUUCGUUGACCAAAAUAAAA”: the “apparent KD of K4 kissing-loop reporter” value by setting is: (input ligand: FMN 200 uM) 227 nM; (input ligand: arginine 13.2 mM) 468 nM; (input ligand: none) 337 nM; under setting [1], 635 nM; under setting [2], 282 nM.

Consider “UACUAGUGAAACUAGUAGGUGCUAGGUGAAGGAGCGAUCGAAAGAUCAGGUAGGUCGCACCUUCCUGAGUGAUGUUCAGGUAAUA [KL-SSArg-A3]”, for which the “apparent KD of K4 kissing-loop reporter” value is 47.2 nM (input ligand: FMN 200 uM); 29.6 nM (input ligand: arginine 13.2 mM); 44.5 nM (input ligand: none); 59.1 nM under setting [1]; 40.9 nM under setting [2].

In the case of “UUUAAAUAUAGUGAUGUUAUAUAACAAUGACGAGGACCGGUACGGCCGCCACUCGAGAGAGAUAAUGGUCUAUAGAAUCUAUAGC [AstrosSSTryA#4]”, the “apparent KD of K4 kissing-loop reporter” value is, setting by setting: (input ligand: FMN 200 uM) 726 nM; (input ligand: arginine 13.2 mM) 622 nM; (input ligand: none) 803 nM; under setting [1], 870 nM; under setting [2], 508 nM.

On to “UGAUAGGACAGAAGGAGCGGUAGUGAUGUUGCCAAAAGGUUAAGGUGUCAAAAGACACCCUACCAGGUAGGUCGCUGUCCUAUCU”, for which the “apparent KD of K4 kissing-loop reporter” value runs as follows: (input ligand: FMN 200 uM) 188 nM; (input ligand: arginine 13.2 mM) 207 nM; (input ligand: none) 193 nM; under setting [1], 193 nM; under setting [2], 179 nM.

With “AACUCUCAGGCACCCGAGUGAUGUUCGGGCCGAGGACCGGUACGGCCGCCACUCGGGCCUGAGAGAGGUUAUCAAAGAUAGCCAA [Omei KL Tryp A SS A v1]”, the “apparent KD of K4 kissing-loop reporter” value (input ligand: FMN 200 uM) turned out to be 247 nM; the “apparent KD of K4 kissing-loop reporter” value (input ligand: arginine 13.2 mM) turned out to be 68.5 nM; the “apparent KD of K4 kissing-loop reporter” value (input ligand: none) came to 114 nM; the “apparent KD of K4 kissing-loop reporter” value under setting [1] was 62.7 nM; the “apparent KD of K4 kissing-loop reporter” value under setting [2] came out at 248 nM.

With “UGACGUAAAACCGUCGAAUCGCUGUGAGAAGGAGCGGUAAAAUUGCCAGGUAGGUCGCUCACAGCCUCACAGUGAUGUUGUGGGA [Sovetequ]”, the “apparent KD of K4 kissing-loop reporter” value runs as follows: (input ligand: FMN 200 uM) 468 nM; (input ligand: arginine 13.2 mM) 104 nM; (input ligand: none) 246 nM; under setting [1], 199 nM; under setting [2], 162 nM.

“GAUUGAGGAAACUCGAUCUUAUAUCCUAGGCAGGAUAUGCGGAAACGCAGAAGGGCCACCUAGCAGUGAUGUUGCAAGCGAAAGC [Ex FMN A 5]”: the “apparent KD of K4 kissing-loop reporter” value came to 203 nM (input ligand: FMN 200 uM); 425 nM (input ligand: arginine 13.2 mM); 379 nM (input ligand: none); 471 nM under setting [1]; 207 nM under setting [2].

Regarding “UGUCAUUGGUCUGAUACCAGCUGAUCGGAAACGAUCUUGCUGGAGUGAUGUUCCAAGUAAAGCCCUUGGCAGCAGACCGAUGACU [TheoBS 9 #SwitchBubble #StaticStem]”, the “apparent KD of K4 kissing-loop reporter” value (input ligand: FMN 200 uM) stood at 183 nM; the “apparent KD of K4 kissing-loop reporter” value (input ligand: arginine 13.2 mM) is 53.8 nM; the “apparent KD of K4 kissing-loop reporter” value (input ligand: none) is 70.6 nM; the “apparent KD of K4 kissing-loop reporter” value under setting [1] came to 107 nM; the “apparent KD of K4 kissing-loop reporter” value under setting [2] was determined as 144 nM.

“UCUUUACCGGGAAGGAGCGUGAAUGAGAAUGGAUAUAGUGAUGUUAUGUAUACGAACGAAUCGCAGGUAGGUCGCCCGGAUCCCU [SSArgB.aB]”: the “apparent KD of K4 kissing-loop reporter” value is, setting by setting: (input ligand: FMN 200 uM) 1150 nM; (input ligand: arginine 13.2 mM) 316 nM; (input ligand: none) 643 nM; under setting [1], 685 nM; under setting [2], 485 nM.

“AAGGCCACGAGAAGGAGCGUGUUGUGGAGUGAUGUUCCAUUGUAGACCUAAGGUCUGCGAGCACAGGUAGGUCGCUCGUGGUCAA [whbob_SS_Arginine_B_2t150]”: the “apparent KD of K4 kissing-loop reporter” value (input ligand: FMN 200 uM) is 108 nM; the “apparent KD of K4 kissing-loop reporter” value (input ligand: arginine 13.2 mM) came to 116 nM; the “apparent KD of K4 kissing-loop reporter” value (input ligand: none) is 107 nM; the “apparent KD of K4 kissing-loop reporter” value under setting [1] amounted to 110 nM; the “apparent KD of K4 kissing-loop reporter” value under setting [2] was 117 nM.

“UCCUAGGUCUUCAGGCGAAAGCCCUGCGAAGGAGCGUGCGAAAGCACAGGUAGGUCGCGCAGUGAUGUUGCACCUAGGUAAUAAA [#SwitchBubble 21 #K4Late]”: the “apparent KD of K4 kissing-loop reporter” value came to 843 nM (input ligand: FMN 200 uM); 111 nM (input ligand: arginine 13.2 mM); 268 nM (input ligand: none); 115 nM under setting [1]; 140 nM under setting [2].

Take “AAGCAGUCACUCGAAACCAUCGAAGAUGGUCGAGGACCGGUACGGCCGCCACUCGGAGUGAUGUUCCGAAGACUGCAAAAUAAAA [#SwitchBubble 10]”: the “apparent KD of K4 kissing-loop reporter” value by setting is: (input ligand: FMN 200 uM) 313 nM; (input ligand: arginine 13.2 mM) 334 nM; (input ligand: none) 286 nM; under setting [1], 277 nM; under setting [2], 751 nM.
